Assay results from patent publication US8809529B2, “Imidazo[1,2-α]pyrazine derivatives” (Promega Corporation, priority 2010, dated 2014).
Changes are numbered by the printed parent chain. Names and notes keep the numbering of the source. Read-outs that look alike come from different tables or passages of the source.

What was measured:
[1] = Km of L27V reversion variants for PBI-3939; assay type: biochemical
Protocol: Relative activities <1 indicate the reversion is detrimental compared to the residue at that site in the L27V variant. Relative activities >1 indicate the reversion is favorable for activity compared to the residue at that site in the L27V variant. Some additional data on these mutants indicated the following: 166K, 54F, 54A and L27V were tested for thermal stability. The T1/2 60° C. for 166K, 54F, and 54A were 87, 74, and 33%, respectively, indicating these substitutions cause a reduction in thermal stability. […] This indicates higher substrate affinity for L27V, particularly for the position 54 substitutions.

[2] = molecular target: T1, caspase-3 (Homo sapiens, UniProt P42574); test: Caspase-3 bioluminescent assay with L27V and PBI-3741; assay type: biochemical; conditions: luminescence, 3 hrs at room temperature
T1 sequence (P42574 29-175 limits assumed): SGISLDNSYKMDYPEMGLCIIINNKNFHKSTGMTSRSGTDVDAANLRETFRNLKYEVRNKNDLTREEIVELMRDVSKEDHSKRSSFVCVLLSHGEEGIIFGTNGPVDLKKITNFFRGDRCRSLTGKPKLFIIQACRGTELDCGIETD
T1 sequence (P42574 176-277 limits assumed): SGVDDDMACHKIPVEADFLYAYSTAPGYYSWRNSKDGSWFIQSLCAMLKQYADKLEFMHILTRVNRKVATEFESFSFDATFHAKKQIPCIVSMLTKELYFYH
Protocol: (§1) 2. The L27V variant was used in a bioluminescent assay using a pro-coelenterazine substrate comprising the DEVD caspase-3 cleavage sequence “DEVD” disclosed as SEQ ID NO: 581). Purified caspase-3 enzyme (1 mg/mL) in 100 mM MES pH 6 (50 μL) was mixed with 227 nM L27V02 variant and 47 μM PBI-3741 (z-DEVD-coelenterazine-h (“DEVD” disclosed as SEQ ID NO: 581)) in assay buffer (50 μL). Reactions were incubated for 3 hrs at room temperature, and luminescence detected as previously described. The assay with the L27V variant was compared to a firefly luciferase version of the assay, CASPASE-GLO® 3/7-Assay system (Caspase-Glo; Promega Corp.).

[3] = test system: caspase-3; test: as above; assay type: biochemical; conditions: luminescence, 3 hrs at room temperature
Protocol: as §1

[4] = assay type: physicochemical, E. coli; conditions: for ½ life: 50° C.
Protocol: Lysates of E. coli containing 15C1, 9B8, 9F6, 8A3 or IV and E. coli expressing hRL (SEQ ID NO: 30 and 31) were prepared from induced cultures as described previously. Lysate samples were diluted 1:1000 with a buffer containing 10 mM HEPES pH 7.5 with 0.1% gelatin. Diluted lysate (100 μL) samples, in replicate 96-well plates, were incubated at 50° C. At different time points, plates were placed at −70° C. (minus seventy degrees Celsius). Prior to measuring the luminescence as described previously, each plate was thawed at room temperature, i.e., 22° C., for 10 min. Samples (10 μL of each thawed sample) were assayed using native coelenterazine as a substrate. Luminescence was measured immediately after addition of assay buffer for each time point plate. The half-life of the protein, which indicated protein stability, was calculated from the luminescence data for each time point using methods known in the art.

[5] = test system: CRE; test: CRE transcriptional reporter, bulk transfection, HEK293 cells; assay type: cell-based, human
Protocol: The transcriptional reporter containing […] and 9B8 opt-P was used in the bulk transfection of HeLa cells
HEK293, NIH3T3, or HeLa cells were plated to a single well of a 6-well tissue culture plate the day before transfection at a density of 4.5×10^5 cells/well in 3 mL complete medium (DMEM+10% FBS+1×NEAA+1× sodium pyruvate) for HEK293 cells, 3×10^5 cellsNvell in 3 mL complete medium (DMEM+10% fetal calf serum (FCS)+1×NEAA+1× sodium pyruvate) for NIH3T3 cells, or 9.9×10^5 cells/well in 3 mL complete medium (DMEM+10% FBS+1×NEAA) for HeLa cells. Cells were grown overnight at 37° C.
3,300 ng of reporter plasmid DNA in 155 4 OPTI-MEM® was mixed with 9.9 μL FUGENE® HD transfection reagent, vortexed briefly, and incubated at room temperature for 10 min. The CRE transcriptional reporters were used to transfect HEK293 and NIH3T3 cells. The HRE transcriptional reporters were used to transfect HeLa cells. The reporter mixture was added to cells and mixed by gentle rocking followed by incubation at 37° C. for 6 hrs (HEK293 and NIH3T3) or 3 hrs (HeLa). Cells were then trypsinized and resuspended in medium (DMEM+10% FBS+1×NEAA+1× sodium pyruvate for HEK293 cells, DMEM+10% FCS+1×NEAA+1× sodium pyruvate for NIH3T3 cells, or DMEM+10% FBS+1×NEAA for HeLa cells), followed by plating to the individual wells of a 96-well plate (20,000 cells/100 μL for HEK293, 10,000 cells/100 4 for NIH3T3, or […] for HeLa) and incubated at 37° C. overnight.
FSK (CRE stimulator) or 17-AAG (HRE stimulator; 17-Allylamino-demethoxy geldanamycin) in OPTI-MEM® was added to the cells (10 nM or 10 μM final concentration for FSK; 1 nM or 1 μM final concentration for 17-AAG) and incubated at 37° C. for 4 hrs (FSK) or 6 hrs (17-AAG). Plates were removed from the incubator and allowed to equilibrate to room temperature for 25 min. Cells were lysed with 100 μL lytic reagent as described above for the forward transfection. Luminescence was measured on a GLOMAX® Luminometer.

[6] = test system: cAMP-response element (CRE); test: cAMP transcriptional reporter in HEK293 cells (Example 36); conditions: for fold-induction: FSK 5 hrs

B1: L27V: 9B8 opt+K33N variant with L27V, T39T, K43R, Y68D (protein)
chain: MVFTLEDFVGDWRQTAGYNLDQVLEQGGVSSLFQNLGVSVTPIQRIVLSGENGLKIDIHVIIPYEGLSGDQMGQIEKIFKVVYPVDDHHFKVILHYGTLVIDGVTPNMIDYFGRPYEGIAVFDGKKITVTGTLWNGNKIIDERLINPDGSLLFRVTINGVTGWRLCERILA
- Km [1]: 18 µM
- (+) caspase [2]: 11,532
- (−) caspase [3]: 803

B2: 9B8: IV variant with Q18L, F68Y, L72Q, M75K; in Tables 12, 22, 23, 26, 27 “9B8” stands for 9B8 opt (protein)
chain: B1 chain with V29L, N35K, R45K, D70Y
- ½ life [4]: 5.8 h
- ½ life ([4]; native coelenterazine as substrate): 5.777 h
- % remaining at t = 4 hrs ([4]; 4 h): 61%

B3: 9B8 opt: codon optimized version of the 9B8 variant (protein)
chain: B1 chain with V29L, N35K, R45K, D70Y
- baseline ([5]; HEK293, 10 nM FSK, 4 h): 39,700,000
- RLU (10 mM FSK) ([5]; HEK293, 4 h): 654,000,000 RLU
- Response ([5]; HEK293, FSK): 16
- induced luminescence higher than Luc2 transcriptional reporter [6]: approximately 1.5 logs
- induced luminescence higher than induced Renilla transcriptional reporter [6]: approximately 2.5 logs
- fold-induction ([6]; 30 ng of DNA): 360
- fold-induction ([6]; 100 ng of DNA): 109
